Assay results taken from paper PMC1557824.

T1: PpZTA1 (zeta crystallin / quinone oxidoreductase), recombinant (Pichia pastoris, UniProt F2QTB9 1-336)
T1 sequence: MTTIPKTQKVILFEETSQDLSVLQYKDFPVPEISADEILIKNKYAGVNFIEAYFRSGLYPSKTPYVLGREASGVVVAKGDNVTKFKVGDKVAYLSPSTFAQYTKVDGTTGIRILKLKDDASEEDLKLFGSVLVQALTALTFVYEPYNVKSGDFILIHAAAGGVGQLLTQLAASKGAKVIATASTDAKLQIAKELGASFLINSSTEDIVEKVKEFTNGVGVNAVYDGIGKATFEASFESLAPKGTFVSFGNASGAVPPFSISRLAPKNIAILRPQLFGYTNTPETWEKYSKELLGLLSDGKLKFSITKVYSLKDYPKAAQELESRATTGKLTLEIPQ


Legend:
[1] = target: recombinant Pichia pastoris zeta crystallin (PpZTA1) (Pichia pastoris); assay: SEC
[2] = target: T1, PpZTA1 (zeta crystallin / quinone …); assay: EMSA

| Molecule | stoichiometry N [1] | Kd [2] [pM] |
| --- | --- | --- |
| recombinant Pichia pastoris zeta crystallin (PpZTA1) (natural protein) | 2 | – |
| 174 (ssDNA) DNA: ACTTGACAGCAATATATAAACAGAAGGAAGCTGCCCTGTCTTAAACCTTTTTTTTTATCA | – | 100 |
| 288 (ssDNA) DNA: ACCCGCTTTTTGGATGATTATGCATTGTCTCCACATTGTATGCTTCCAAGATTCTGGTGG | – | 900 |
| 229 (ssDNA) DNA: GAATACTGCTGATAGCCTAACGTTCATGATCAAAATTTAACTGTTCTAACCCCT | – | 200 |
